Measured values taken from US5204445A, “Peptides and antibodies that inhibit integrin-ligand binding” (The Scripps Research Institute, priority 1989, dated 1993).

Columns and labels:
[1] = molecular target: T1, beta subunit (GPIIIa) (Homo sapiens, UniProt P05106+P08514); experiment: Chemical crosslinking of 125I-labeled RGD peptide to platelets (BS3), SDS-PAGE and autoradiography; format: binding; conditions: 125I-Fn-7 20 μM, thrombin-stimulated platelets, 45 min at 22° C., BS3 0.2 mM
T1 construct: Platelets were isolated from fresh human blood collected into acid/citrate/dextrose; endogenous in cells; host or cells: washed human platelets, thrombin-stimulated or nonstimulated
Experimental: FIG. 2 illustrates the results of the crosslinking of an RGD peptide to discrete sites in the beta subunit (GPIIIa) of an Integrin adhesion receptor. The ^125 I-labeled RGD peptide, Fn-7 (20 μM), was bound to platelet (6×10^8 /ml) for 45 min at 22° C., and crosslinked with BS^3 (0.2 mM). The fragmentation patterns after proteolysis were analyzed by SDS-PAGE [Laemmli, Nature. 227:680 (1970)] and autoradiography. […] Lanes 2-7, GPIIIa:Fn-7 bands were excised from gels, subjected to proteolysis and then analyzed by SDS-PAGE (15% gels, reducing conditions). For lanes 2-5, GPIIIA:Fn-7 bands were excised and digestions with V-8 protease were performed within the gel slices as described in Cleveland et al., J. Biol. Chem., 252:1102 (1977).
Platelet binding of Fn-7 followed the protocols previously described for measuring platelet interactions with adhesive proteins and with this and other peptides. See, Ginsberg et al., J. Biol. Chem., 260:3931-3936 (1985); Lam et al , Fed. Proc. Fed. Am. Soc. Exp. Biol., 44:1126 (1985); and Marguerie et al., supra. […]
The cell-bound ligand was recovered by centrifugation through 20% sucrose, and the cells were extracted in PBS containing 1% Nonidet P40 and […] N-ethylmaleimide (Sigma). […] The cross-linked samples were analyzed by electrophoresis (SDS-PAGE) on polyacrylamide vertical slab gels in the buffer system of Laemmli, Nature, […] (1970). […]

[2] = molecular target: T2, alpha subunit (GPIIb) (Homo sapiens, UniProt P05106+P08514); experiment: as above; format: binding; conditions: 125I-Fn-7 20 μM, thrombin-stimulated platelets, 45 min at 22° C., BS3 0.2 mM
T2 construct: Platelets were isolated from fresh human blood collected into acid/citrate/dextrose; endogenous in cells; host or cells: washed human platelets, thrombin-stimulated

“KYGRRGDS [Fn-7, RGD-peptide with lysine for crosslinking and tyrosine for radioiodination]” was tested, and the “crosslinking to the beta subunit (GPIIIa)” value [1] was “predominance” and the “crosslinking to the alpha subunit (GPIIb)” value [2] was “more minor crosslinking”.
